This note sets out measurements from the supplement of paper PMC7877785.

A short description of the data set: self-splicing fitness, log relative to wild type (ln ratio); higher = more splicing; Tetrahymena group I intron in knt gene, E. coli kanamycin selection, DiMSum; sequences stand for … in CUCUCU…GGAGGGAAAAGUUAUCAGGCAUGCACCUGGUAGCUAGUCUUUAAACCAAUAGAUUGCAUCGGUUUAAAAGGCAAGACCGUCAAAUUGCGGGAAAGGGGUCAACAGCCGUUCAGUACCAAGUCUCAGGGGAAACUUUGAGAUGGCCUUGCAAAGGGUAUGGUAAUAAGCUGACGGACAUGGUCCUAACCACGCAGCCAAGUCCUAAGUCAACAGAUCUUCUGUUGAUAUGGAUGCAGUUCACAGACUAAAUGUCGGUCGGGGAAGAUGUAUUCUUCUCAUAAGAUAUAGUCGGACCUCUCCUUAAUGGGAGCUAGCGGAUGAAGUGAUGCAACACUGGAGCCGCUGGGAACUAAUUUGUAUGCGAAAGUAUAUUGAUUAGUUUUGGAGUACUCGUGGUCG
A digest of the protocol: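 Library with all eight P1ex-region intron nucleotides randomised, intron inside the knt kanamycin-resistance gene on pET-22b(+), in E. coli BL21(DE3). Cells grew overnight at 37°C or 30°C on LB agar with or without 25 μg/mL kanamycin (plus 100 μg/mL carbenicillin, 50 μM IPTG, 0.2% rhamnose), in six replicate transformations. Pooled colonies were amplicon-sequenced on Illumina HiSeq 2500. DiMSum fitness is the error-weighted combination of wild-type-normalised replicate fold changes, kanamycin versus none.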

± gives the uncertainty stated by the source.

As to CGCCAGCAAUAUUACGAGUC, the “self-splicing fitness (ln)” value was -3.11 ± 0.28 (30 °C) and -1.56 ± 0.24 (37 °C).

Consider CCGAAGCAAUAUUACGUAUU, for which the “self-splicing fitness (ln)” value reads like this: (30 °C) -4.74 ± 0.29; (37 °C) -3.35 ± 0.2.

With UCGUAGCAAUAUUACGUGAG, the “self-splicing fitness (ln)” value reads like this: (30 °C) -3.55 ± 0.19; (37 °C) -1.35 ± 0.15.

Regarding CUAAAGCAAUAUUACGCAAU, the “self-splicing fitness (ln)” value reads like this: (30 °C) -3.94 ± 0.21; (37 °C) -2.97 ± 0.24.

For GGCAAGCAAUAUUACGCCUG, where the note is “37 °C”, the “self-splicing fitness (ln)” value was -0.621 ± 0.47.

Consider CACAAGCAAUAUUACGCCAG, for which the “self-splicing fitness (ln)” value by setting is: (30 °C) -1 ± 0.08; (37 °C) -1.09 ± 0.11.

For the sequence AGCAAGCAAUAUUACGGACG, the “self-splicing fitness (ln)” value is -0.404 ± 0.061 (30 °C) and -0.244 ± 0.086 (37 °C).

For CCGAAGCAAUAUUACGCAGC, the “self-splicing fitness (ln)” value (30 °C) is -3.49 ± 0.23 and the “self-splicing fitness (ln)” value (37 °C) was -2.36 ± 0.37.

As to GACGAGCAAUAUUACGGACA, the “self-splicing fitness (ln)” value is -1.57 ± 0.43 (30 °C) and -0.484 ± 0.14 (37 °C).

Take UCUUAGCAAUAUUACGGGCG: the “self-splicing fitness (ln)” value is, setting by setting: (30 °C) -1.5 ± 0.14; (37 °C) -0.448 ± 0.17.

Regarding GGAGAGCAAUAUUACGGUGC, the “self-splicing fitness (ln)” value reads like this: (30 °C) -3.03 ± 0.12; (37 °C) -1.57 ± 0.11.

As to AGACAGCAAUAUUACGUACA, the “self-splicing fitness (ln)” value was -0.745 ± 0.078 (30 °C) and -0.238 ± 0.097 (37 °C).

Regarding AGACAGCAAUAUUACGAAAC, the “self-splicing fitness (ln)” value was -3.76 ± 0.27 (30 °C) and -2.66 ± 0.34 (37 °C).

As to UGCCAGCAAUAUUACGUCAU, the “self-splicing fitness (ln)” value was -3 ± 0.16 (30 °C) and -2.38 ± 0.18 (37 °C).

Consider CCCCAGCAAUAUUACGGGAU, for which the “self-splicing fitness (ln)” value runs as follows: (30 °C) -3.28 ± 0.12; (37 °C) -2.48 ± 0.14.

Consider CCUAAGCAAUAUUACGGGCG, for which the “self-splicing fitness (ln)” value was -2.15 ± 0.11 (30 °C) and -0.76 ± 0.1 (37 °C).

Turning to GGCGAGCAAUAUUACGUCCG, the “self-splicing fitness (ln)” value was -3.67 ± 0.35 (30 °C) and -2.39 ± 0.32 (37 °C).

Consider AAAUAGCAAUAUUACGCUGA, for which the “self-splicing fitness (ln)” value was -2.31 ± 0.16 (30 °C) and -1.29 ± 0.18 (37 °C).

For GUUCAGCAAUAUUACGGUAA, the “self-splicing fitness (ln)” value was -1.21 ± 0.07 (30 °C) and -0.563 ± 0.07 (37 °C).

Consider UUCCAGCAAUAUUACGUUCC, for which the “self-splicing fitness (ln)” value (37 °C) was -1.84 ± 0.42.

With CCCGAGCAAUAUUACGCGGG, the “self-splicing fitness (ln)” value is -3.54 ± 0.17 (30 °C) and -3.45 ± 0.3 (37 °C).

For ACGAAGCAAUAUUACGUUGU, the “self-splicing fitness (ln)” value (30 °C) was -2.95 ± 0.14 and the “self-splicing fitness (ln)” value (37 °C) is -1.86 ± 0.12.

In the case of UCCGAGCAAUAUUACGGACG, the “self-splicing fitness (ln)” value runs as follows: (30 °C) -3.59 ± 0.24; (37 °C) -2.37 ± 0.25.

Consider CCUAAGCAAUAUUACGACUG, for which the “self-splicing fitness (ln)” value was -1.74 ± 0.15 (30 °C) and -0.483 ± 0.14 (37 °C).

With AUUCAGCAAUAUUACGUUCU, the “self-splicing fitness (ln)” value by setting is: (30 °C) -0.926 ± 0.074; (37 °C) -0.163 ± 0.1.

For the sequence UAUGAGCAAUAUUACGAGCG, the “self-splicing fitness (ln)” value is -1.32 ± 0.12 (30 °C) and -1.26 ± 0.16 (37 °C).

For the sequence UGCCAGCAAUAUUACGUUGC, the “self-splicing fitness (ln)” value was -2.93 ± 0.17 (30 °C) and -2.93 ± 0.18 (37 °C).

As for GUUAAGCAAUAUUACGAGGG, the “self-splicing fitness (ln)” value is -3.99 ± 0.21 (30 °C) and -3.08 ± 0.25 (37 °C).

On to AUACAGCAAUAUUACGCAAG, for which the “self-splicing fitness (ln)” value is -2.28 ± 0.12 (30 °C) and -1.49 ± 0.13 (37 °C).

On to CGACAGCAAUAUUACGUCAU, for which the “self-splicing fitness (ln)” value by setting is: (30 °C) -3.41 ± 0.24; (37 °C) -1.54 ± 0.14.

Consider AAUGAGCAAUAUUACGUUUA, for which the “self-splicing fitness (ln)” value is, setting by setting: (30 °C) -3.81 ± 0.35; (37 °C) -2.21 ± 0.22.

Turning to AUUGAGCAAUAUUACGUUUC, the “self-splicing fitness (ln)” value (37 °C) is -2.57 ± 0.48.

In the case of GGUUAGCAAUAUUACGGCGG, the “self-splicing fitness (ln)” value runs as follows: (30 °C) -2.05 ± 0.15; (37 °C) -1.68 ± 0.16.

For the sequence GGCUAGCAAUAUUACGGUUC, the “self-splicing fitness (ln)” value is, setting by setting: (30 °C) -1.31 ± 0.056; (37 °C) -0.331 ± 0.072.

As to UUGUAGCAAUAUUACGCUGG, the “self-splicing fitness (ln)” value by setting is: (30 °C) -1.38 ± 0.15; (37 °C) -1.77 ± 0.23.

With UGCCAGCAAUAUUACGACAA, the “self-splicing fitness (ln)” value reads like this: (30 °C) -1.19 ± 0.17; (37 °C) 0.212 ± 0.13.

CUAGAGCAAUAUUACGAAGC: the “self-splicing fitness (ln)” value reads like this: (30 °C) -0.938 ± 0.42; (37 °C) -1.45 ± 0.43.

On to CUUAAGCAAUAUUACGGCAG, for which the “self-splicing fitness (ln)” value by setting is: (30 °C) -0.565 ± 0.099; (37 °C) -0.3 ± 0.12.
